To fix the notation:
B1: RSPH3 (parent)
chain: QRLEEQERRHREEKERRKKQQWEI
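Further: lentivirally expressed fusions sorted by FACS into six bins by GFP to DsRed ratio, PSI derived from sequencing read proportions per bin multiplied by bin number.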

In the data set the parent is B1. In words: protein stability index of a GFP-peptide fusion (GPS, HEK-293T) (PSI 1-6); higher = more stable. Conditions: c terminus: a fixed tail appended.
On to QRLEEQERRHREAKERRKKQQWEI [E13A], for which the protein stability index amounted to 3.79. The value for QRLEEQERRHREFKERRKKQQWEI [E13F] was 3.72; that for QRLEEQERRHREDKERRKKQQWEI [E13D] was 4.74.

Consider QRLEEQERRHREVKERRKKQQWEI [E13V], for which the protein stability index turned out to be 4.14. As for QRLIEQERRHREEKERRKKQQWEI [E4I], the figure is 4.17; as for QRLYEQERRHREEKERRKKQQWEI [E4Y], 3.67. The value for QRLPEQERRHREEKERRKKQQWEI [E4P] was 4.48; that for QRLAEQERRHREEKERRKKQQWEI [E4A] was 4.21. As for QRLVEQERRHREEKERRKKQQWEI [E4V], the figure is 3.99; as for QRLFEQERRHREEKERRKKQQWEI [E4F], 4.47.

Consider QRLHEQERRHREEKERRKKQQWEI [E4H], for which the protein stability index worked out at 4.18. In the case of QRLREQERRHREEKERRKKQQWEI [E4R], the protein stability index is 3.84. The value for QRLQEQERRHREEKERRKKQQWEI [E4Q] was 4.46; that for QRLDEQERRHREEKERRKKQQWEI [E4D] was 4.56.

For the variant QRLNEQERRHREEKERRKKQQWEI [E4N], the protein stability index was found to be 4.9. The value for QRLEEQERRHREEKEWRKKQQWEI [R16W] was 4.02; that for QRLEEQERRHREEKEKRKKQQWEI [R16K] was 4.57.

For the variant QRLEEQERRHREEKEARKKQQWEI [R16A], the protein stability index is 4.5. As for QRLEEQERRHREEKEHRKKQQWEI [R16H], the figure is 4.77; as for QRLEEQERRHREEKEMRKKQQWEI [R16M], 5.04.

As to QRLEEQERRHYEEKERRKKQQWEI [R11Y], the protein stability index came to 4.68.

With QRLEEQERRHAEEKERRKKQQWEI [R11A], the protein stability index was determined as 4.91. Regarding QRLEEQERRHVEEKERRKKQQWEI [R11V], the protein stability index was 4.24. Turning to QRLEEQERRHGEEKERRKKQQWEI [R11G], the protein stability index was 5.08. The value for QRLEEQERRHSEEKERRKKQQWEI [R11S] was 4.35; that for QRLEEQERRHFEEKERRKKQQWEI [R11F] was 4.64. As for QRLEEQERRHPEEKERRKKQQWEI [R11P], the figure is 5.34; as for QRLEEQERRHEEEKERRKKQQWEI [R11E], 5.19; as for QRLEEQERRHWEEKERRKKQQWEI [R11W], 4.44.

As to QRLEEQERRHNEEKERRKKQQWEI [R11N], the protein stability index worked out at 5.19. As for QRLEEQERRHIEEKERRKKQQWEI [R11I], the figure is 4.22; as for QRLEEQERRHREEKERRKKQQTEI [W22T], 5.67.

For QRLEEQERRHREEKERRKKQQQEI [W22Q], the protein stability index is 5.15. As for QRLEEQERRHREEKERRKKQQDEI [W22D], the figure is 5.52; as for QRLEEQERRHREEKERRKKQQVEI [W22V], 5.34.

With QRLEEQERRHREEKERRKKQQEEI [W22E], the protein stability index was found to be 5.75. As for QRLEEQERRHREEKERRKKQQGEI [W22G], the figure is 5.48; as for QRLEEQERRHREEKERRKKQQLEI [W22L], 5.22; as for QRLEEQERRHREEKERRKKQQSEI [W22S], 5.35. The value for QRLEEQERRHREEKERRKKQQAEI [W22A] was 5.13; that for RRLEEQERRHREEKERRKKQQWEI [Q1R] was 4.49; that for KRLEEQERRHREEKERRKKQQWEI [Q1K] was 4.29. The value for LRLEEQERRHREEKERRKKQQWEI [Q1L] was 4.35; that for FRLEEQERRHREEKERRKKQQWEI [Q1F] was 4.28; that for VRLEEQERRHREEKERRKKQQWEI [Q1V] was 4.81. As for QRLEEQERRHRSEKERRKKQQWEI [E12S], the protein stability index amounted to 3.99.

Consider QRLEEQERRHRYEKERRKKQQWEI [E12Y], for which the protein stability index was 3.78. The value for QRLEEQERRHRVEKERRKKQQWEI [E12V] was 4.5. As for QRLEEQERRHRWEKERRKKQQWEI [E12W], the figure is 2.58; as for QRLEEQERRHRAEKERRKKQQWEI [E12A], 4.84; as for QRLEEQERRHRREKERRKKQQWEI [E12R], 4.37.

As for QRLEEQERRHRHEKERRKKQQWEI [E12H], the protein stability index stood at 4.03. The value for QRLEEQERRHRLEKERRKKQQWEI [E12L] was 4.42. On to QRLEEQERRHRPEKERRKKQQWEI [E12P], for which the protein stability index is 4.07. The value for QRLEEQERRHREEKERTKKQQWEI [R17T] was 4.62; that for QRLEEQERRHREEKERHKKQQWEI [R17H] was 4.53; that for QRLEEQERRHREEKERDKKQQWEI [R17D] was 4.42.

Consider QRLEEQERRHREEKERCKKQQWEI [R17C], for which the protein stability index stood at 4.59. The value for QRLEEQERRHREEKERNKKQQWEI [R17N] was 4.76; that for QRLEEQERRHREEKERFKKQQWEI [R17F] was 4.41. As for QRLEEQERRHREEKERQKKQQWEI [R17Q], the figure is 4.82. Take QRLEEQERRHREEKERAKKQQWEI [R17A]: the protein stability index amounted to 4.94. The value for QRLEEQERRHREEKERRKKSQWEI [Q20S] was 4.8; that for QRLEEQERRHREEKERRKKWQWEI [Q20W] was 4.36; that for QRLEEQERRHREEKERRKKEQWEI [Q20E] was 4.8.

Regarding QRLEEQERRHREEKERRKKGQWEI [Q20G], the protein stability index turned out to be 4.65. QRLEEQERRHREEKERRKKDQWEI [Q20D]: the protein stability index came to 4.94. As for QRLEEQERRHREEKERRKKRQWEI [Q20R], the figure is 4.12. For the variant QRLEEQERRHREEKERRKKCQWEI [Q20C], the protein stability index turned out to be 4.77.

As for QRLEEQERRHREEKERRKKKQWEI [Q20K], the protein stability index was determined as 4.22. As for QRSEEQERRHREEKERRKKQQWEI [L3S], the figure is 4.91; as for QRQEEQERRHREEKERRKKQQWEI [L3Q], 4.72. Consider QRTEEQERRHREEKERRKKQQWEI [L3T], for which the protein stability index came to 4.99. The value for QRFEEQERRHREEKERRKKQQWEI [L3F] was 4.2; that for QRHEEQERRHREEKERRKKQQWEI [L3H] was 4.54; that for QRMEEQERRHREEKERRKKQQWEI [L3M] was 4.81. The value for QRPEEQERRHREEKERRKKQQWEI [L3P] was 5; that for QRLEEQERRHREEKERRWKQQWEI [K18W] was 4.03; that for QRLEEQERRHREEKERRMKQQWEI [K18M] was 4.6. Consider QRLEEQERRHREEKERRFKQQWEI [K18F], for which the protein stability index was determined as 4.43.

On to QRLEEQERRHREEKERREKQQWEI [K18E], for which the protein stability index amounted to 4.6. The value for QRLEEQERRHREEKERRGKQQWEI [K18G] was 4.71. As for QRLEEQERRHREEKERRAKQQWEI [K18A], the figure is 4.46. As for QRLEEQERRHREEKERRDKQQWEI [K18D], the figure is 4.59.

Take QRLEEQERRHREEKERRIKQQWEI [K18I]: the protein stability index is 4.94. As for QRLEEQERRHREEKERRRKQQWEI [K18R], the figure is 3.87; as for QRLEEQERRHREESERRKKQQWEI [K14S], 3.26; as for QRLEEQERRHREELERRKKQQWEI [K14L], 3.94. As for QRLEEQERRHREEFERRKKQQWEI [K14F], the figure is 4.69; as for QRLEEQERRHREEWERRKKQQWEI [K14W], 4.45; as for QRLEEQERRHREETERRKKQQWEI [K14T], 4.08. The value for QRLEEQERRHREEHERRKKQQWEI [K14H] was 4.73; that for QRLEEQERRHREEAERRKKQQWEI [K14A] was 4.83; that for QRLEEQERRHREEIERRKKQQWEI [K14I] was 3.76.

The values are drawn from the supplement of paper PMC10567573.
